According to patent publication US20210180049A1 (CHUGAI SEIYAKU KABUSHIKI KAISHA, priority 2013, published 2021):

Experiments:
[1] = SPR (Biacore T200) binding of humanized SMB0002 and its variants to adenosine; settings: Biacore T200, 25° C.; read-out: KD of humanized SMB0002 toward adenosine
Experimental: (§1) Binding of humanized SMB0002 to adenosine and AMP was measured and analyzed by a method using Biacore T200 (GE Healthcare). Protein A (Invitrogen) immobilized in an appropriate amount onto a Sensor chip CM5 (GE Healthcare) by the amine coupling method was allowed to capture the antibody of interest, and the interaction with the antigen adenosine, AMP, ADP, or ATP was observed. The running buffer used was 50 mM Tris-HCl, 150 mM NaCl, 0.02% (w/v) Tween 20, pH 7.6, for adenosine and AMP, and 50 mM Tris-HCl, 150 mM NaCl, 0.02% (w/v) Tween 20, 2 mM MgCl2, pH 7.6, for ADP and ATP. All measurements were carried out at 25° C. The antigens were diluted with the running buffer.
(§2) Then, the running buffer was run at a flow rate of 30 μL/min for five minutes, and dissociation of the antigens from the antibody was observed. Next, 10 mM glycine-HCl, pH 1.5, was added at a flow rate of 30 μL/min for 30 seconds to regenerate the sensor chip. Kinetic parameters such as the association rate constant ka (1/Ms) and the dissociation rate constant kd (l/s) were calculated based on the sensorgrams obtained by the measurements. The dissociation constant KD (M) was calculated from these constants. Each parameter was calculated using Biacore T200 Evaluation Software (GE Healthcare).
(§3) As a result of the measurements, the affinity of each variant toward adenosine and AMP was calculated as KD value. […]

[2] = SPR (Biacore T200) binding of humanized SMB0002 and its variants to AMP; settings: Biacore T200, 25° C.; read-out: KD of humanized SMB0002 toward AMP
Experimental: as §1, §2, §3

[3] = SPR (Biacore T200) binding of humanized SMB0002 to ATP; settings: Biacore T200, 25° C., 2 mM MgCl2; read-out: KD of humanized SMB0002 toward ATP
Experimental: as §1, §2

[4] = SPR (Biacore T200) binding of humanized SMB0002 to ADP; settings: Biacore T200, 25° C., 2 mM MgCl2; read-out: KD of humanized SMB0002 toward ADP
Experimental: as §1, §2

[5] = SPR (Biacore T200) binding of 6RNMSC1-2_F02 and variants to kynurenine; settings: for Kd / ka for kynurenine / kd for kynurenine: Biacore T200, 15° C., 5% DMSO
Experimental: An appropriate amount of protein A (Invitrogen) was immobilized onto Sensor chip CM4 (GE Healthcare) by the amine coupling method. The antibody of interest was captured thereon, and the antigen kynurenine and derivatives thereof were allowed to interact. The running buffer used was 50 mmol/L Tris-HCl, 150 mmol/L NaCl, 0.02% (w/v) Tween 20, 5% DMSO, pH 7.6. All measurements were carried out at 15° C. The antigens were diluted with the running buffer.
Then, the running buffer was run at a flow rate of 30 μL/min for 60 seconds to observe the dissociation of antigens from the antibody. Kinetic parameters, the association rate constant ka (1/Ms) and the dissociation rate constant kd (l/s), were calculated based on the sensorgrams obtained by the measurements. The dissociation constant KD (M) was calculated from these constants. Each parameter was calculated using Biacore T200 Evaluation Software (GE Healthcare).
(§4) Meanwhile, the type of sensor chip immobilized with Protein A was changed to Sensor chip Series S CM3 (GE Healthcare) to measure some of the variants. When kynurenine dissociation was too fast to determine the dissociation rate constant, a dissociation constant KD (M) was calculated by analysis of equilibrium values based on the degree of binding response during the interaction with each antigen (association phase). In this case also, Biacore T200 Evaluation Software (GE Healthcare) was used to calculate the parameters.
as §4
(§5) When kynurenine dissociation was too fast to determine the dissociation rate constant, the dissociation constant KD (M) was calculated by analysis of equilibrium values based on the degree of binding response when it is interacted with each antigen (association phase). Also in this case, the Biacore T200 Evaluation Software (GE Healthcare) was used to calculate parameters. […] Each variant and its parental antibody F02h011/F021003 were compared in terms of the KD value for kynurenine.
as §5, with “analyzing” for “analysis of”, “sequence” for “antibody”

[6] = Tm measurement by DSC
Experimental: Measurement by DSC was carried out by a method known to those skilled in the art.
DSC measurement was carried out by a method known to those skilled in the art.

[7] = target: T1, human IL-6 receptor (hIL-6R) (Homo sapiens, UniProt P08887); test: phage ELISA for hIL-6R binding in the presence/absence of small molecule cocktail (SC); settings: absorbance at 450 nm
T1 sequence (P08887 20-357 limits assumed): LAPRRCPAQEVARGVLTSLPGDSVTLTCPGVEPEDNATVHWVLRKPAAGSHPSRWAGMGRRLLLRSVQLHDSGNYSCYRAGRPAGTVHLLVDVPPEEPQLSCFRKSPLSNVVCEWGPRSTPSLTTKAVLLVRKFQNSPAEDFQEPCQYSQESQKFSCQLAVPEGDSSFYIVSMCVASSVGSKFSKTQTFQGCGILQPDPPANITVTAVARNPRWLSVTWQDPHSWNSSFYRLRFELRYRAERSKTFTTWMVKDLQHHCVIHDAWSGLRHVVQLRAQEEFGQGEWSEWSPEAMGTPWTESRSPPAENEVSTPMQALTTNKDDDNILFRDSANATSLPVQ
Experimental: From a single colony of E. coli obtained in (6-1), a phage-containing culture supernatant was collected according to a conventional method (Methods Mol. Biol. (2002) 178, 133-145). […] A StreptaWell 96 microtiter plate (Roche) was coated overnight with 100 μL of TBS containing biotin-labeled hIL-6R. […] After removing 2% skim milk/TBS, purified phages were added to each well of the plate, and the plate was left still at room temperature for one hour to allow antibody-presenting phages to bind to biotin-labeled hIL-6R present in each well in the presence/absence of SC. Each well was washed with TBST or SC/TBST, and HRP-conjugated anti-M13 antibody (Amersham Pharmacia Biotech) diluted with TBS or SC/TBS was added thereto, and the plate was incubated for one hour. After washing with TBST or SC/TBST, the chromogenic reaction of TMB single solution (ZYMED) added in each well was terminated by adding sulfuric acid. Then, the color development was measured by absorbance at 450 nm.

[8] = target: T1, human IL-6 receptor (hIL-6R); test: IgG ELISA for hIL-6R binding under small molecule conditions of Table 12; settings: IgG 2.5 μg/mL
Experimental: Three types of obtained antibodies 6RNMSC1-2_F02, 6RNMSC1-3_G02, and GC413 were subjected to ELISA under the nine conditions shown in Table 12. The antigen used was biotin-labeled hIL-6R.
First, a StreptaWell 96 microtiter plate (Roche) was coated with 100 μL of PBS containing biotin-labeled hIL-6R at room temperature for one hour or longer. […] 100 μL of each of the purified IgGs prepared at 2.5 μg/mL using Sample Buffer containing small molecules at the final concentrations shown in Table 12 were added to each well, and the plate was let still at room temperature for one hour to allow each IgG to bind to biotin-labeled hIL-6R present in each well. After washing with Wash Buffer containing small molecules at the final concentrations shown in Table 12, HRP-conjugated anti-human IgG antibody (BIOSOURCE) diluted with Sample Buffer containing the same small molecules was added to each well and the plate was incubated for one hour. After washing with Wash Buffer containing respective small molecules, the chromogenic reaction of TMB single solution (ZYMED) added in each well was terminated by adding sulfuric acid. Then, the color development was measured by absorbance at 450 nm.

[9] = competitive phage ELISA with ATP; assay type: binding; settings: ATP from equal amount up to 10000 times that of the antigen
Experimental: ATNLSA1-4_D12 and PF1 were each diluted with TBS and subjected to ELISA by the following procedure.
A StreptaWell 96 microtiter plate (Roche) was coated at room temperature for one hour with 100 μl of TBS containing biotin-labeled antigens (a mixture of 5′-adenosine-PEG-biotin and ATP-PEG-biotin). After the antigens were removed by washing each well of the plate with TBST, the wells were blocked with 250 μl of 2% skim milk/TBS for one hour or more. 2% skim milk/TBS was removed, and then the prepared, purified phages were added to each well. The plate was allowed to stand at room temperature for one hour to allow binding of the antibody-displaying phages to the antigens in each well. […] For the competition of the immobilized antigen with ATP, the plate was allowed to stand at room temperature for one hour. Then, after TBST wash, an HRP-conjugated anti-M13 antibody (Amersham Pharmacia Biotech) diluted with TBS was added to each well. The plate was incubated for one hour. Following TBST wash, the TMB single solution (ZYMED) was added to each well. The chromogenic reaction in the solution of each well was terminated by adding sulfuric acid. Then, the developed color was assessed by measuring absorbance at 450 nm.

B1: humanized SMB0002: heavy chain variable region SEQ ID NO: 85; light chain variable region SEQ ID NO: 86 (antibody, V domains shown)
VH: QVQLVQSGAEVKKPGASVKVSCKVSGIDLTNYAMGWVRQPPGKGLEWIGIIGADSSTWYPSWVKGRFTISKDTSKNQVVLTMTNMDPVDTATYYCARGRFVGYTNAFDPWGQGTLVTVSS
VL: DIQLTQSPSSLSASVGDRVTITCQSSQSVWNNNYLSWYQQKPGQPPKLLIYDASTLASGVPSRFSGSGSGTDFTLTINSLEAEDAATYYCHGSYANSGWYDNAFGGGTEVVVK
**Q.** For B1, which Kd [1] is on record?
**A.** 0.0075 µM

**Q.** And the Kd [2]?
**A.** 35 µM

**Q.** And the Kd [3]?
**A.** 140 µM

**Q.** What about the Kd [4] of the same molecule?
**A.** 79 µM

B2: F02h011/F021003: 6RNMSC1-2_F02 with framework restored to germline; variable regions SEQ ID NO: 95 and 96 (antibody, V domains shown)
VH: QVQLVQSGAEVKKPGSSVKVSCKASGGTFSSYAISWVRQAPGQGLEWMGGIIPIFGTANYAQKFQGRVTITADESTSTAYMELSSLRSEDTAVYYCARDAPVVARPRGAFDIWGQGTLVTVSS
VL: DIVMTQSPLSLPVTPGEPASISCRSSQSLVHSDGNTYLSWYLQKPGQSPQLLIYEISNRFSGVPDRFSGSGSGTDFTLKISRVEAEDVGVYYCMQATQFPRTFGQGTKVEIK
**Q.** With B2 as the molecule, how does the “kynurenine binding (in words)” value ([5]; Biacore) read?
**A.** retain kynurenine binding

**Q.** What about the Kd [5] of the same molecule?
**A.** 110 µM

**Q.** What about the ka for kynurenine [5] of the same molecule?
**A.** 3664 M⁻¹ s⁻¹

**Q.** And the kd for kynurenine [5]?
**A.** 0.40 L/s

**Q.** What about the Tm [6] of the same molecule?
**A.** 85.2 °C

B3: F02h011/F021098: F02h011/F021003 with Lch_Ser56Tyr; variable regions SEQ ID NO: 95 and 97 (antibody, V domains shown)
VH: QVQLVQSGAEVKKPGSSVKVSCKASGGTFSSYAISWVRQAPGQGLEWMGGIIPIFGTANYAQKFQGRVTITADESTSTAYMELSSLRSEDTAVYYCARDAPVVARPRGAFDIWGQGTLVTVSS
VL: DIVMTQSPLSLPVTPGEPASISCRSSQSLVHSDGNTYLSWYLQKPGQSPQLLIYEISNRFYGVPDRFSGSGSGTDFTLKISRVEAEDVGVYYCMQATQFPRTFGQGTKVEIK
**Q.** With B3 as the molecule, how does the Kd [5] read?
**A.** 72 µM

**Q.** What about the ka for kynurenine [5] of the same molecule?
**A.** 3686 M⁻¹ s⁻¹

**Q.** What about the kd for kynurenine [5] of the same molecule?
**A.** 0.26 L/s

B4: 6RNMSC1-3_G02: antibody binding hIL-6R in the presence of ATP; heavy chain SEQ ID NO: 34, light chain SEQ ID NO: 35 (antibody, listed as Homo sapiens, V domains shown)
VH: EVQLVQSGGDLVKPGGSLRLSCAASGFTFSNYAMHWVRQAPGKGLEWVAVVSYDGSNKYYADSVKGRFTISRDNSKNTLYLQMNSLRAEDTAVYYCARLVPSSGYPGRFDPWGQGTLVTVSS
VL: NIQMTQSPSSLSASVGDRVTITCRASQSISSSLNWYQQIPGKAPKLLIYAASSLQSGVPSRFSGSGSGTDFTLTISSLQPEDFASYYCQQSYSAWTFGQGTKVEIK
**Q.** Which “binding activity to the antigen hIL-6R in the presence of a small molecule mixture” value [7] does the source give for B4 here?
**A.** having binding activity

**Q.** And the “absorbance under condition 9 (no small molecule) compared to condition 8 (cocktail of all small molecules)” value ([8]; absorbance at 450 nm)?
**A.** significantly lower

**Q.** What about the “small molecule in whose presence the antibody binds hIL-6R” value ([8]; conditions 1-9 of Table 12, absorbance at 450 nm) of the same molecule?
**A.** binds to the antigen hIL-6R in the presence of ATP

B5: PF1: hIL-6R-binding clone prepared as a negative control; heavy chain SEQ ID NO: 50, light chain SEQ ID NO: 51 (antibody, V domains shown)
VH: QVQLQESGPGLVKPSETLSLTCAVSGYSISDDHAWSWVRQPPGEGLEWIGYISYSGITNYNPSLKGRVTISRDTSKNQFSLKLSSVTAADTAAYYCARVLARITAMDYWGEGTLVTVSS
VL: DIQMTQSPSSLSASVGDSVTITCQASQDISSYLNWYQQKPGKAPELLIYYGSELHSGVPSRFSGSGSGTDFTFTISSLEAEDAATYYCGQGNRLPYTFGQGTKVEIE
**Q.** With B5 as the molecule, how does the “binding to biotin-labeled antigen with ATP as competitor” value [9] read?
**A.** not detected regardless of the ATP concentration
